# Patent US7375074B2, “Body weight gain inhibitor” (priority 2001, dated 2008)
# No end group written: not given here. *: point of attachment. 125I = [125I]*
# How the values were obtained:
# human GPR8 = target: T1, human GPR8 (Homo sapiens, UniProt P48146); test: Receptor binding using [125I-Tyr10]-hGPR8L(1-23) and membrane fraction of GPR8 expressing CHO cells; conditions: membrane fraction of human GPR8 expressing cells
# T1 construct: expressed in transfected cells; host or cells: CHO dhfr- cells, plasmid pAKKO-GPR8; membrane fraction
# T1 sequence (P48146 whole entry): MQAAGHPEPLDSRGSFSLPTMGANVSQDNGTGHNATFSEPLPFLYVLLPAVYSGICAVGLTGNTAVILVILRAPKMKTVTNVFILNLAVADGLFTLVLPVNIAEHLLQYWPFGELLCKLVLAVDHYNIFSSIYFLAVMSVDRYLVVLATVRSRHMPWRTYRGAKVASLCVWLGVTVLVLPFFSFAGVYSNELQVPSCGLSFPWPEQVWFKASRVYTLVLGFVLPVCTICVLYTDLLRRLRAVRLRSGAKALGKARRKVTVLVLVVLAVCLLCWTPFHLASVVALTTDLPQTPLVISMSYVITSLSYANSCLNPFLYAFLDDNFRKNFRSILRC
# TGR26 = target: T2, TGR26 (Rattus norvegicus, UniProt Q56UD9); test: Receptor binding using [125I-Tyr10]-hGPR8L(1-23) and membrane fraction of TGR26 expressing CHO cells; conditions: membrane fraction of TGR26 expressing CHO cells, 3 μg/ml
# T2 construct: treated with restriction enzymes ClaI and SpeI, and the insert encoding TGR26 was excised; expressed in transfected cells; host or cells: CHO dhfr- cells, plasmid pAK-rGPR7; membrane fraction
# T2 sequence (Q56UD9 1-329): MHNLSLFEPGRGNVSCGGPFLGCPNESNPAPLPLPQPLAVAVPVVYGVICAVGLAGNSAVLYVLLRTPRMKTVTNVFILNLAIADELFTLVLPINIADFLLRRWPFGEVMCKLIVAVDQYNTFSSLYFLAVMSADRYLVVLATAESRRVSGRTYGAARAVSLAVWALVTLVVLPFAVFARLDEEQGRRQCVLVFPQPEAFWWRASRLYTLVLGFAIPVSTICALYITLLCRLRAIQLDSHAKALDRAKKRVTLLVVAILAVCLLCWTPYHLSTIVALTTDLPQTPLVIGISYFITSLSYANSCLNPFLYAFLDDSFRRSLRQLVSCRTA
# Procedure: Using [^125I-Tyr^10]-hGPR8L(1-23) prepared by the method described in Reference Example 42 and a cell membrane fraction prepared from TGR26 expressing cells as described in Example 6, a receptor binding assay was carried out as follows.
# Cell membrane fraction prepared from TGR26 expressing cells was diluted to various concentration with assay buffer (25 mM Tris-HCl, 5 mM EDTA, 0.05% CHAPS (3-[(3-Cholamidopropyl) Dimethyl-Ammonio]-1-Propanesulfonate), 0.1% BSA, 0.5 mM PMSF, 1 μg/ml Pepstatin, 20 μg/ml Leupeptin, 4 μg/ml E-64, pH7.4), and 200 μl each of the diluent was dispensed into polypropilene test tube (Falcon 2053). In order to determine an amount of maximum binding, 2 μl of DMSO and 2 μl of 7 nM [^125I-Tyr^10]-hGPR8L(1-23) were added to the membrane fraction solution. […] After filtration, a radioactivity remaining on the filter was counted using γ-counter, and an amount of specific binding was estimated by subtracting an amount of non-specific binding from an amount of maximum binding. […]
# A receptor binding activity of human- and porcine-homologue derivatives of GPR8 ligand peptide obtained in the reference examples was measured using a membrane fraction of TGR26 expressing CHO cells and [^125I-Tyr^10]-hGPR8L(1-23) by the method described in Reference Example 73. […]
specific binding compared with [125I-Tyr2]-hGPR8L(1-23) (human GPR8),IC50 (TGR26) [nM],Compound
twice as much,–,[^125I-Tyr^10]-hGPR8L(1-23): hGPR8L(1-23) iodinated with 125I at Tyr10 by the lactoperoxidase method; radioligand (WYKHVASPRY(125I)HTVGRAAGLLMGL)
–,0.12,CSCC[C@H](NC(=O)[C@H](CC(C)C)NC(=O)[C@H](CC(C)C)NC(=O)CNC(=O)[C@H](C)NC(=O)[C@H](C)NC(=O)[C@H](CCCNC(=N)N)NC(=O)CNC(=O)[C@@H](NC(=O)[C@@H](NC(=O)[C@H](Cc1c[nH]cn1)NC(=O)[C@H](Cc1ccc(O)cc1)NC(=O)[C@H](CCCNC(=N)N)NC(=O)[C@@H]1CCCN1C(=O)[C@H](CO)NC(=O)[C@H](C)NC(=O)[C@@H](NC(=O)[C@H](Cc1c[nH]cn1)NC(=O)[C@H](CCCCN)NC(=O)[C@H](Cc1ccc(O)cc1)NC(=O)[C@@H](N)Cc1c[nH]c2ccccc12)[C@@H](C)O)[C@@H](C)O)C(C)C)C(=O)NCC(=O)N[C@@H](CC(C)C)C(=O)O [pGPR8L(1-23)]
